Measured values published in the supplement of paper PMC10567573.

B1: NCF4 (parent)
chain: FGPDSKSSALACTLPTLPAKVYVG

Variants of: B1
Assay: protein stability index of a GFP-peptide fusion (GPS, HEK-293T) (PSI 1-6); higher = more stable
Conditions: c terminus: a fixed tail appended
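Further: lentivirally expressed fusions sorted by FACS into six bins by GFP to DsRed ratio, PSI derived from sequencing read proportions per bin multiplied by bin number.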

Variant	protein stability index
FGPDSKSSRLACTLPTLPAKVYVG [A9R]	2.29
FGPDSKSSPLACTLPTLPAKVYVG [A9P]	1.57
FGPDSKSSILACTLPTLPAKVYVG [A9I]	1.86
FGPDSKSSKLACTLPTLPAKVYVG [A9K]	1.89
FGPDSKSSVLACTLPTLPAKVYVG [A9V]	2.25
FGPDSKSSMLACTLPTLPAKVYVG [A9M]	1.9
FGPDSKSSNLACTLPTLPAKVYVG [A9N]	2.49
FGPDSKSSHLACTLPTLPAKVYVG [A9H]	2.23
FGPDSKSSLLACTLPTLPAKVYVG [A9L]	1.11
FGPDSKSSTLACTLPTLPAKVYVG [A9T]	2.44
FGPDSKSSCLACTLPTLPAKVYVG [A9C]	1.74
FGPDSKSSYLACTLPTLPAKVYVG [A9Y]	1.5
FGPDSKSSGLACTLPTLPAKVYVG [A9G]	1.67
FGPDSKSSSLACTLPTLPAKVYVG [A9S]	2.23
FGPDSKSSWLACTLPTLPAKVYVG [A9W]	2.52
FGPDSKSSDLACTLPTLPAKVYVG [A9D]	3.18
FGPDSKSSELACTLPTLPAKVYVG [A9E]	3.67
FGPDSKSSQLACTLPTLPAKVYVG [A9Q]	2.46
FGPDSKSSALACTLITLPAKVYVG [P15I]	3.1
FGPDSKSSALACTLQTLPAKVYVG [P15Q]	1.89
FGPDSKSSALACTLSTLPAKVYVG [P15S]	1.95
FGPDSKSSALACTLWTLPAKVYVG [P15W]	3.34
FGPDSKSSALACTLKTLPAKVYVG [P15K]	1.86
FGPDSKSSALACTLTTLPAKVYVG [P15T]	1.59

Variant	protein stability index
FGPDSKSSALACTLHTLPAKVYVG [P15H]	1.67
FGPDSKSSALACTLETLPAKVYVG [P15E]	2.29
FGPDSKSSALACTLMTLPAKVYVG [P15M]	1.86
FGPDSKSSALACTLFTLPAKVYVG [P15F]	3.49
FGPDSKSSALACTLDTLPAKVYVG [P15D]	1.53
FGPDSKSSALACTLYTLPAKVYVG [P15Y]	2.87
FGPDSKSSALACTLVTLPAKVYVG [P15V]	1.99
FGPDSKSSALACTLCTLPAKVYVG [P15C]	2.19
FGPDSKSSALACTLGTLPAKVYVG [P15G]	1.61
FGPDSKSSALACTLATLPAKVYVG [P15A]	1.5
FGPDSKSSALACTLLTLPAKVYVG [P15L]	1.8
FGPDSKSSALACTLRTLPAKVYVG [P15R]	1.61
FGPDSKSSALACTLNTLPAKVYVG [P15N]	1.85
FGPDSKSSALAGTLPTLPAKVYVG [C12G]	2.41
FGPDSKSSALAQTLPTLPAKVYVG [C12Q]	2.36
FGPDSKSSALATTLPTLPAKVYVG [C12T]	2.76
FGPDSKSSALAFTLPTLPAKVYVG [C12F]	1.7
FGPDSKSSALAETLPTLPAKVYVG [C12E]	3.13
FGPDSKSSALAHTLPTLPAKVYVG [C12H]	3.16
FGPDSKSSALANTLPTLPAKVYVG [C12N]	2.77
FGPDSKSSALADTLPTLPAKVYVG [C12D]	2.95
FGPDSKSSALAYTLPTLPAKVYVG [C12Y]	1.88
FGPDSKSSALAATLPTLPAKVYVG [C12A]	2.87
FGPDSKSSALALTLPTLPAKVYVG [C12L]	2.33

Variant	protein stability index
FGPDSKSSALASTLPTLPAKVYVG [C12S]	2.87
FGPDSKSSALAWTLPTLPAKVYVG [C12W]	1.88
FGPDSKSSALAVTLPTLPAKVYVG [C12V]	2.19
FGPDSKSSALAMTLPTLPAKVYVG [C12M]	2.77
FGPDSKSSALARTLPTLPAKVYVG [C12R]	2.5
FGPDSKSSALAKTLPTLPAKVYVG [C12K]	2.95
FGPDSKSSALAITLPTLPAKVYVG [C12I]	2.3
FGPDSKSSALACTIPTLPAKVYVG [L14I]	2.15
FGPDSKSSALACTQPTLPAKVYVG [L14Q]	2.25
FGPDSKSSALACTHPTLPAKVYVG [L14H]	2.19
FGPDSKSSALACTNPTLPAKVYVG [L14N]	2.32
FGPDSKSSALACTFPTLPAKVYVG [L14F]	2.25
FGPDSKSSALACTMPTLPAKVYVG [L14M]	2.77
FGPDSKSSALACTRPTLPAKVYVG [L14R]	2.32
FGPDSKSSALACTSPTLPAKVYVG [L14S]	2.86
FGPDSKSSALACTCPTLPAKVYVG [L14C]	1.77
FGPDSKSSALACTDPTLPAKVYVG [L14D]	2.84
FGPDSKSSALACTGPTLPAKVYVG [L14G]	2.66
FGPDSKSSALACTYPTLPAKVYVG [L14Y]	1.86
FGPDSKSSALACTVPTLPAKVYVG [L14V]	2.11
FGPDSKSSALACTAPTLPAKVYVG [L14A]	2.68
FGPDSKSSALACTWPTLPAKVYVG [L14W]	1.51
FGPDSKSSALACTKPTLPAKVYVG [L14K]	2.55
FGPDSKSSALACTEPTLPAKVYVG [L14E]	2.76

Variant	protein stability index
FGPDSKSSALACTTPTLPAKVYVG [L14T]	2.54
FGPDSKSSALTCTLPTLPAKVYVG [A11T]	2.51
FGPDSKSSALVCTLPTLPAKVYVG [A11V]	1.76
FGPDSKSSALNCTLPTLPAKVYVG [A11N]	2.78
FGPDSKSSALKCTLPTLPAKVYVG [A11K]	2.29
FGPDSKSSALDCTLPTLPAKVYVG [A11D]	2.99
FGPDSKSSALECTLPTLPAKVYVG [A11E]	2.63
FGPDSKSSALMCTLPTLPAKVYVG [A11M]	2.86
FGPDSKSSALYCTLPTLPAKVYVG [A11Y]	1.46
FGPDSKSSALSCTLPTLPAKVYVG [A11S]	2.45
FGPDSKSSALLCTLPTLPAKVYVG [A11L]	2.18
FGPDSKSSALRCTLPTLPAKVYVG [A11R]	1.58
FGPDSKSSALICTLPTLPAKVYVG [A11I]	2.24
FGPDSKSSALCCTLPTLPAKVYVG [A11C]	2.35
FGPDSKSSALGCTLPTLPAKVYVG [A11G]	2.22
FGPDSKSSALHCTLPTLPAKVYVG [A11H]	2.23
FGPDSKSSALFCTLPTLPAKVYVG [A11F]	2.4
FGPDSKSSALPCTLPTLPAKVYVG [A11P]	2.17
FGPDSKSSALQCTLPTLPAKVYVG [A11Q]	3
FGPDSMSSALACTLPTLPAKVYVG [K6M]	2.89
FGPDSYSSALACTLPTLPAKVYVG [K6Y]	1.43
FGPDSNSSALACTLPTLPAKVYVG [K6N]	2.8
FGPDSRSSALACTLPTLPAKVYVG [K6R]	1.76
FGPDSTSSALACTLPTLPAKVYVG [K6T]	2.78

Variant	protein stability index
FGPDSPSSALACTLPTLPAKVYVG [K6P]	2.33
FGPDSHSSALACTLPTLPAKVYVG [K6H]	2.29
FGPDSSSSALACTLPTLPAKVYVG [K6S]	2.41
FGPDSWSSALACTLPTLPAKVYVG [K6W]	3.06
FGPDSQSSALACTLPTLPAKVYVG [K6Q]	2.45
FGPDSVSSALACTLPTLPAKVYVG [K6V]	2.07
FGPDSLSSALACTLPTLPAKVYVG [K6L]	1.63
FGPDSISSALACTLPTLPAKVYVG [K6I]	1.95
FGPDSKSSAAACTLPTLPAKVYVG [L10A]	2.99
FGPDSKSSARACTLPTLPAKVYVG [L10R]	3.23
FGPDSKSSATACTLPTLPAKVYVG [L10T]	3.57
FGPDSKSSAGACTLPTLPAKVYVG [L10G]	2.93
FGPDSKSSAVACTLPTLPAKVYVG [L10V]	2.88
FGPDSKSSAFACTLPTLPAKVYVG [L10F]	2.15
FGPDSKSSAYACTLPTLPAKVYVG [L10Y]	1.86
FGPDSKSSASACTLPTLPAKVYVG [L10S]	2.64
FGPDSKSSACACTLPTLPAKVYVG [L10C]	2.69
FGPDSKSSADACTLPTLPAKVYVG [L10D]	3.99
FGPDSKSSAPACTLPTLPAKVYVG [L10P]	3.58
FGPDSKSSAQACTLPTLPAKVYVG [L10Q]	2.95
FGPDSKSSAKACTLPTLPAKVYVG [L10K]	3.29
FGPDSKSSAMACTLPTLPAKVYVG [L10M]	2.69
FGPDSKSSANACTLPTLPAKVYVG [L10N]	3.73
FGPDSKSSAHACTLPTLPAKVYVG [L10H]	2.88

Variant	protein stability index
FGPDSKSSAIACTLPTLPAKVYVG [L10I]	2.12
FGPDSKSSAEACTLPTLPAKVYVG [L10E]	3.65
FGPDSKSSALACTLPGLPAKVYVG [T16G]	1.88
FGPDSKSSALACTLPKLPAKVYVG [T16K]	2.33
FGPDSKSSALACTLPFLPAKVYVG [T16F]	2.38
FGPDSKSSALACTLPHLPAKVYVG [T16H]	2.2
FGPDSKSSALACTLPILPAKVYVG [T16I]	1.66
FGPDSKSSALACTLPCLPAKVYVG [T16C]	2.02
FGPDSKSSALACTLPELPAKVYVG [T16E]	2.4
FGPDSKSSALACTLPALPAKVYVG [T16A]	2
FGPDSKSSALACTLPDLPAKVYVG [T16D]	2.45
FGPDSKVSALACTLPTLPAKVYVG [S7V]	1.73
FGPDSKPSALACTLPTLPAKVYVG [S7P]	1.97
FGPDSKDSALACTLPTLPAKVYVG [S7D]	2.9
FGPDSKWSALACTLPTLPAKVYVG [S7W]	1.97
FGPDSKQSALACTLPTLPAKVYVG [S7Q]	3.06
FGPDSKESALACTLPTLPAKVYVG [S7E]	2.72
FGPDSKKSALACTLPTLPAKVYVG [S7K]	2.35
FGPDSKYSALACTLPTLPAKVYVG [S7Y]	1.06
FGPDSKMSALACTLPTLPAKVYVG [S7M]	2.25
FGPDSKISALACTLPTLPAKVYVG [S7I]	1.56
FGPDSKCSALACTLPTLPAKVYVG [S7C]	1.69
FGPDSKLSALACTLPTLPAKVYVG [S7L]	2.07
FGPDSKTSALACTLPTLPAKVYVG [S7T]	2.37

Variant	protein stability index
FGPDSKFSALACTLPTLPAKVYVG [S7F]	2.9
FGPDSKASALACTLPTLPAKVYVG [S7A]	1.9
FGPDSKHSALACTLPTLPAKVYVG [S7H]	1.57
FGPDSKNSALACTLPTLPAKVYVG [S7N]	2.23
FGPDSKRSALACTLPTLPAKVYVG [S7R]	2.35
FGPDSKGSALACTLPTLPAKVYVG [S7G]	2.37
FGPDSKSSALACNLPTLPAKVYVG [T13N]	2.9
FGPDSKSSALACDLPTLPAKVYVG [T13D]	2.81
FGPDSKSSALACYLPTLPAKVYVG [T13Y]	1.86
FGPDSKSSALACWLPTLPAKVYVG [T13W]	3.59
FGPDSKSSALACFLPTLPAKVYVG [T13F]	2.39
FGPDSKSSALACCLPTLPAKVYVG [T13C]	1.96
FGPDSKSSALACHLPTLPAKVYVG [T13H]	1.85
FGPDSKSSALACALPTLPAKVYVG [T13A]	2.28
FGPDSKSSALACGLPTLPAKVYVG [T13G]	1.85
FGPDSKSSALACLLPTLPAKVYVG [T13L]	1.83
FGPDSKSSALACPLPTLPAKVYVG [T13P]	1.88
FGPDSKSSALACVLPTLPAKVYVG [T13V]	1.79
FGPDSKSSALACKLPTLPAKVYVG [T13K]	2.46
FGPDSKSSALACSLPTLPAKVYVG [T13S]	2.44
FGPDSKSSALACELPTLPAKVYVG [T13E]	2.7
FGPDSKSSALACMLPTLPAKVYVG [T13M]	2.15
FGPDSKSSALACQLPTLPAKVYVG [T13Q]	2.19
FGPDSKSSALACRLPTLPAKVYVG [T13R]	2.33

Variant	protein stability index
FGPDSKSSALACILPTLPAKVYVG [T13I]	2.18
FGPDSKSKALACTLPTLPAKVYVG [S8K]	1.85
FGPDSKSPALACTLPTLPAKVYVG [S8P]	2.22
FGPDSKSLALACTLPTLPAKVYVG [S8L]	1.98
FGPDSKSCALACTLPTLPAKVYVG [S8C]	2.44
FGPDSKSIALACTLPTLPAKVYVG [S8I]	2.44
FGPDSKSAALACTLPTLPAKVYVG [S8A]	2.32
FGPDSKSDALACTLPTLPAKVYVG [S8D]	2.7
FGPDSKSVALACTLPTLPAKVYVG [S8V]	2.22
FGPDSKSWALACTLPTLPAKVYVG [S8W]	2.65
FGPDSKSHALACTLPTLPAKVYVG [S8H]	1.67
FGPDSKSRALACTLPTLPAKVYVG [S8R]	3.19
FGPDSKSYALACTLPTLPAKVYVG [S8Y]	4.4
FGPDSKSNALACTLPTLPAKVYVG [S8N]	2.32
FGPDSKSGALACTLPTLPAKVYVG [S8G]	2.77
FGPDSKSEALACTLPTLPAKVYVG [S8E]	3.36
FGPDSKSTALACTLPTLPAKVYVG [S8T]	1.89
FGPDSKSFALACTLPTLPAKVYVG [S8F]	2.86
FGPDSKSMALACTLPTLPAKVYVG [S8M]	2.08
FGPDSKSQALACTLPTLPAKVYVG [S8Q]	2.29
